Test results: patent US20260062466A1
Changes are numbered by the printed parent chain.

B1: 516.F07 (antibody, V domains shown)
VH: EVQLVQSGAEVKKPGESLKISCKGSGYRFTSYWIAWVRQMPGKGLECMGIIYPGDSDTRYSPSFQGQVTISVDKSISTAYLQWSSLKASDTAMFYCARHNNNWSLQGYFDYWGQGTLVTVSS
VL: PSALTQPASVSGSPGQSITISCTGTSSDVGGYNYVSWYQQHPGKAPKLMIYDVSNRSSGVSNRFSGSKSGNTASLTISGLQAEDEADYYCSSYTGSSTSNYVFGTGTKVTVL
B2: 520.D02 (antibody, V domains shown)
VH: QVQLVQSGSELQKPGASVKVSCKASGYTFTENAIIWVRQAPGQGLEWMGRIIRYPGRPTIAQGFTGRFGFSLDTSINTAYLEISNLKAEDTAFFYCAREYCDSSSCSSFDYWGQGTLVTVSS
VL: QSVLTQPPSASGSPGQSVTISCTGTNNDVGIYSYVSWYQQHPGKAPKLMIYEVSKRPSGVPDRFSGSKSGNTASLTVSGLQADDEADYYCSSYAGSNSYVFGSGTKVTVL
B3: 506.C01 (antibody, V domains shown)
VH: QVQLQESGPGLVKPSQTLSLTCTVSGGSISSDDYYWTWIRLPPGKGLEWIGYIFYTGGTYYNPSLKSRVTISLDRSKNQFSLKLSSVTAADTAVYFCARAPETYCSTTNCYKGYFDSWGQGTLVTVSS
VL: DIQMTQSPSSVSASVGDRVTITCRASQGISSWLGWYQQKPGKAPKLLIYAASSLQSGVPSRFSGSGSGTDFTLTISSLQPEDFATYYCQQANSFPRTFGQGTKVEIK
B4: 516.H09 (antibody, V domains shown)
VH: QLQLQESGPGLVKPSETLSLTCTVSGGSISSSSYYWGWIRQPPGKGLEWIGSIYYSGSTYYNPSLKSRVTISVDTSKNQFSLKLSSVTAADTAVYYCARHSYCSGGSCYLAPLGDWGQGTLVTVSS
VL: SYVLTQPPSVSVAPGKTARITCGGNNIGSKSVHWYQQKPGQAPVLVIYYDSDRPSGIPERFSGSNSGNTATLTISRVEAGDEADYYCQVWDSSSDFYVFGTGTKVTVL
B5: 516.D09 (antibody, V domains shown)
VH: QVQLVQSGAEVKKPGSSVKVSCKAFGGTFSSSAITWVRQAPGQGLEWMGRIIPIFGTANYAQKFQGRVTITADKSTTTAYMELSSLRSEDTAVYYCALKADSYCSGSSCYPSFDYWGQGTLVTVSS
VL: B4 VL with K38R, I47V, Y49D, F96Q, Y97E, T101G, V105L
B6: 516.H07 (antibody, V domains shown)
VH: EVQLVESGGGLVQPGGSLRLSCAASGFTFSSYEMNWVRQAPGKGLEWVSYMSYTGSTIYYADSVKGRFTISRDNGKNSLYLQMNSLRVEDTAVYYCARGGVVVAPTYFDYWGQGTLVTVSS
VL: QSVLTQPPSVSGAPGQRVTISCTGSSSNIGAGYDVHWYQQLPGTAPKLLIYHNNNRPSGVPDRFSASKSGTSASLAITGLQAEDEADYYCQSYDSSLSGWVFGGGTKLTVL

How the values were obtained:
Experiment in all cases: cell-based or functional assay
[1] = target: CHIKV-37997 (virus) (Chikungunya virus strain 37997) (UniProt Q5XXP3)
[2] = target: CHIKV-LR 2006 (virus) (Chikungunya virus strain LR 2006)
[3] = target: ONNV (O'nyong'nyong virus, MP30) envelope glycoproteins (O'nyong'nyong virus strain MP30)

Sequence of CHIKV-37997 (virus) (Chikungunya virus strain 37997) (Q5XXP3 326-748 limits assumed, chain 1 of 2): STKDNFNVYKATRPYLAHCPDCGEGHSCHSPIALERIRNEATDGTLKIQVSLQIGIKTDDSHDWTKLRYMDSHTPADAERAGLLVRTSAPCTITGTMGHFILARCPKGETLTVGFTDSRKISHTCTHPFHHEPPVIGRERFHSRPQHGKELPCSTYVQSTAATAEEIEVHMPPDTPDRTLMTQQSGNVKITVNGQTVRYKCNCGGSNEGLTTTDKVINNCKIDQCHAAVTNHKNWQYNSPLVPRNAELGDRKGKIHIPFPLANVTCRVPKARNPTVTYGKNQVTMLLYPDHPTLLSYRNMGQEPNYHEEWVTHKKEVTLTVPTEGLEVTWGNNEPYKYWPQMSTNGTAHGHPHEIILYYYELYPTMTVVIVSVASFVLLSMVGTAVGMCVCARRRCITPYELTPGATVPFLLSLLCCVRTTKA
Sequence of CHIKV-37997 (virus) (Chikungunya virus strain 37997) (Q5XXP3 810-1248 limits assumed, chain 2 of 2): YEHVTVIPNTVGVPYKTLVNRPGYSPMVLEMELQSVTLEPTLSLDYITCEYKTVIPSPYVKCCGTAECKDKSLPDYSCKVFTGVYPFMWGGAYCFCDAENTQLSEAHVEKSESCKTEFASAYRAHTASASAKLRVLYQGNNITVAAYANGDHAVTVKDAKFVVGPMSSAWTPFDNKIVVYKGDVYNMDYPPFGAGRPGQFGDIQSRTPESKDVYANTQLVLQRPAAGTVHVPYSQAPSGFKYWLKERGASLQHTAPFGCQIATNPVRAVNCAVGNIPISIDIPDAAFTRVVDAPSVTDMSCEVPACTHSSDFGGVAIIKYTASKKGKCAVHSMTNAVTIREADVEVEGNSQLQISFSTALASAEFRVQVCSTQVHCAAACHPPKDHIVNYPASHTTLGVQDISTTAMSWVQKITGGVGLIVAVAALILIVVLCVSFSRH

Binder	FRNT neutralisation, 37997 EC50 [1] [ng/mL]	FRNT neutralisation, LR 2006 EC50 [2] [ng/mL]	FRNT neutralisation of ONNV, EC50 [3] [ng/mL]
B1	4	31	
B2	2	5	
B3			< 50
B4	526	182	
B5	350	248	
B6	910	61	< 50
